The Immune Epitope Database (IEDB)
pIC50, pKd: −log10 of the molar value.

Tests used:
HLA-A*31:01 = assay: IEDB peptide-MHC binding, purified MHC/direct/fluorescence; filed as Kd, often an IC50 or EC50 that approximates it; ≥ and ≤ were set here for values at or beyond the usual limits of such assays
HLA-B*40:01 = assay: as above
HLA-A*11:01 = assay: as above
HLA-A*02:01 [1] = assay: as above
HLA-B*58:01 = assay: as above
HLA-B*07:02 = assay: as above
HLA-B*48:01 = assay: as above; conditions: source organism: Mycobacterium tuberculosis
HLA-B*27:05 = assay: as above
HLA-B*15:17 = assay: IEDB peptide-MHC binding, purified MHC/competitive/fluorescence; filed as Kd, often an IC50 or EC50 that approximates it; ≥ and ≤ were set here for values at or beyond the usual limits of such assays; conditions: source organism: Mycobacterium tuberculosis variant bovis BCG str. Pasteur 1173P2
HLA-A*69:01 [2] = assay: as above
HLA-A*68:02 = assay: as above; conditions: source organism: Mycobacterium tuberculosis variant bovis BCG str. Pasteur 1173P2
HLA-A*26:01 [3] = assay: as above; conditions: source organism: Mycobacterium tuberculosis variant bovis BCG str. Pasteur 1173P2
HLA-A*01:01 [4] = assay: as above; conditions: source organism: Mycobacterium tuberculosis variant bovis BCG str. Pasteur 1173P2
HLA-A*26:03 = assay: as above; conditions: source organism: Mycobacterium tuberculosis variant bovis BCG str. Pasteur 1173P2
HLA-A*02:06 = assay: as above
HLA-A*26:02 [5] = assay: as above; conditions: source organism: Mycobacterium tuberculosis variant bovis BCG str. Pasteur 1173P2
HLA-A*69:01 [6] = assay: IEDB peptide-MHC binding, purified MHC/direct/fluorescence; filed as Kd, often an IC50 or EC50 that approximates it; ≥ and ≤ were set here for values at or beyond the usual limits of such assays
HLA-B*57:01 = assay: as above; conditions: source organism: Mycobacterium tuberculosis
HLA-A*01:01 [7] = assay: as above
HLA-B*46:01 = assay: as above; conditions: source organism: Mycobacterium tuberculosis
HLA-B*35:01 [8] = assay: IEDB peptide-MHC binding, purified MHC/competitive/fluorescence; filed as Kd, often an IC50 or EC50 that approximates it; ≥ and ≤ were set here for values at or beyond the usual limits of such assays; conditions: source organism: Mycobacterium tuberculosis variant bovis BCG str. Pasteur 1173P2
HLA-B*18:01 = assay: as above; conditions: source organism: Mycobacterium tuberculosis variant bovis BCG str. Pasteur 1173P2
HLA-B*15:01 [9] = assay: as above; conditions: source organism: Mycobacterium tuberculosis variant bovis BCG str. Pasteur 1173P2
HLA-A*02:11 = assay: as above; conditions: source organism: human gammaherpesvirus 4
HLA-A*02:01 [10] = assay: as above; conditions: source organism: human gammaherpesvirus 4
HLA-A*02:16 = assay: as above; conditions: source organism: human gammaherpesvirus 4
HLA-A*02:12 = assay: as above; conditions: source organism: human gammaherpesvirus 4
HLA-A*02:19 = assay: as above; conditions: source organism: human gammaherpesvirus 4
HLA-A*02:03 = assay: as above; conditions: source organism: human gammaherpesvirus 4
HLA-A*02:01 [11] = assay: IEDB peptide-MHC binding, cellular MHC/competitive/fluorescence; ≥ and ≤ were set here for values at or beyond the usual limits of such assays
HLA-A*26:02 [12] = assay: IEDB peptide-MHC binding, purified MHC/direct/fluorescence; filed as Kd, often an IC50 or EC50 that approximates it; ≥ and ≤ were set here for values at or beyond the usual limits of such assays; conditions: source organism: West Nile virus strain PTRoxo
HLA-B*83:01 = assay: IEDB peptide-MHC binding, purified MHC/competitive/fluorescence; filed as Kd, often an IC50 or EC50 that approximates it; ≥ and ≤ were set here for values at or beyond the usual limits of such assays; conditions: source organism: West Nile virus
HLA-B*15:42 = assay: as above; conditions: source organism: West Nile virus
HLA-B*45:06 = assay: as above; conditions: source organism: West Nile virus
HLA-A*32:07 = assay: as above; conditions: source organism: West Nile virus
HLA-A*32:15 = assay: as above; conditions: source organism: West Nile virus
HLA-C*06:02 = assay: IEDB peptide-MHC binding, purified MHC/direct/fluorescence; filed as Kd, often an IC50 or EC50 that approximates it; ≥ and ≤ were set here for values at or beyond the usual limits of such assays; conditions: source organism: Entamoeba histolytica HM-1:IMSS
HLA-C*08:02 = assay: as above
HLA-C*05:01 = assay: as above
HLA-C*07:02 = assay: as above; conditions: source organism: Entamoeba histolytica HM-1:IMSS
HLA-B*35:01 [13] = assay: as above; conditions: source organism: Burkholderia mallei
HLA-A*03:01 = assay: as above; conditions: source organism: Burkholderia mallei
HLA-A*26:01 [14] = assay: as above; conditions: source organism: Burkholderia mallei
HLA-B*15:01 [15] = assay: as above; conditions: source organism: Burkholderia mallei
HLA-A*24:03 = assay: as above; conditions: source organism: Burkholderia mallei
HLA-B*08:01 = assay: as above; conditions: source organism: Burkholderia mallei
HLA-B*14:02 = assay: as above; conditions: source organism: Homo sapiens
[16] = source organism: Mycobacterium tuberculosis
[17] = source organism: Mycobacterium tuberculosis variant bovis BCG str. Pasteur 1173P2
[18] = source organism: human gammaherpesvirus 4
[19] = source organism: Entamoeba histolytica HM-1:IMSS
[20] = source organism: Burkholderia mallei
[21] = source organism: Burkholderia pseudomallei 91

For ATADLELAY, the pKd (HLA-A*31:01; [16]) was ≤ 4.70, the pKd (HLA-B*40:01; [16]) was ≤ 4.70 and the pKd (HLA-A*11:01; [16]) was 7.98. For the same sequence, the pKd (HLA-A*02:01 [1]; [16]) was 6.09, the pKd (HLA-B*58:01; [16]) was 8.01 and the pKd (HLA-B*07:02; [16]) was ≤ 4.70. For the same sequence, the pKd (HLA-B*48:01) was ≤ 4.70, the pKd (HLA-B*27:05; [16]) was ≤ 4.70 and the pKd (HLA-B*15:17) was 7.95. For the same sequence, the pKd (HLA-A*69:01 [2]; [17]) was ≤ 4.70, the pKd (HLA-A*68:02) was ≤ 4.70 and the pKd (HLA-A*26:01 [3]) was 6.37. For the same sequence, the pKd (HLA-A*01:01 [4]) was 7.64, the pKd (HLA-A*26:03) was ≤ 4.70 and the pKd (HLA-A*02:06; [17]) was 5.60. It also gave a pKd (HLA-A*26:02 [5]) of 6.89.
For AVFLSYIGY, the pKd (HLA-A*31:01; [16]) was ≤ 4.70, the pKd (HLA-A*69:01 [6]; [16]) was ≤ 4.70 and the pKd (HLA-B*40:01; [16]) was ≤ 4.70. The pKd (HLA-A*11:01; [16]) was 5.81, the pKd (HLA-A*02:01 [1]; [16]) was ≤ 4.70 and the pKd (HLA-B*57:01) was ≤ 4.70. The pKd (HLA-A*01:01 [7]; [16]) was ≤ 4.70, the pKd (HLA-B*58:01; [16]) was 4.77 and the pKd (HLA-B*46:01) was ≤ 4.70. For the same sequence, the pKd (HLA-B*07:02; [16]) was ≤ 4.70, the pKd (HLA-B*48:01) was ≤ 4.70 and the pKd (HLA-B*27:05; [16]) was ≤ 4.70. For the same sequence, the pKd (HLA-B*15:17) was 6.50, the pKd (HLA-A*68:02) was 5.52 and the pKd (HLA-B*35:01 [8]) was 5.40. The pKd (HLA-B*18:01) was ≤ 4.70, the pKd (HLA-A*26:01 [3]) was ≤ 4.70 and the pKd (HLA-B*15:01 [9]) was 5.74. For the same sequence, the pKd (HLA-A*26:03) was ≤ 4.70.
With CLGGLLTMV the pKd (HLA-A*69:01 [2]; [18]) was 5.50, the pKd (HLA-A*02:11) was ≥ 10.00 and the pKd (HLA-A*02:01 [10]) was 7.64. For the same sequence, the pKd (HLA-A*02:16) was ≥ 10.00, the pKd (HLA-A*02:12) was ≥ 9.00 and the pKd (HLA-A*02:06; [18]) was ≥ 10.00. For the same sequence, the pKd (HLA-A*02:19) was 8.12, the pKd (HLA-A*02:03) was 9.17 and the pIC50 (HLA-A*02:01 [11]; [18]) was 5.60.
ETTNWLWAF was tested, and the pKd (HLA-A*26:02 [12]) was ≥ 9.00, the pKd (HLA-B*83:01) was ≤ 5.30 and the pKd (HLA-B*15:42) was ≤ 5.30. For the same sequence, the pKd (HLA-B*45:06) was ≤ 5.30, the pKd (HLA-A*32:07) was 7.58 and the pKd (HLA-A*32:15) was 7.60.
FAMRLLQAV gave a pKd (HLA-C*06:02) of 6.07, a pKd (HLA-C*08:02; [19]) of 7.77 and a pKd (HLA-C*05:01; [19]) of 5.50. It also gave a pKd (HLA-C*07:02) of 5.54.
With ISDSAQNMM the pKd (HLA-A*31:01; [20]) was ≤ 4.70, the pKd (HLA-A*69:01 [6]; [20]) was ≤ 4.70 and the pKd (HLA-C*08:02; [21]) was ≥ 9.00. For the same sequence, the pKd (HLA-B*35:01 [13]) was 7.40, the pKd (HLA-B*40:01; [20]) was ≤ 4.70 and the pKd (HLA-A*03:01) was ≤ 4.70. The pKd (HLA-A*11:01; [20]) was ≤ 4.70, the pKd (HLA-A*02:01 [1]; [20]) was ≤ 4.70 and the pKd (HLA-A*26:01 [14]) was ≤ 4.70. For the same sequence, the pKd (HLA-B*15:01 [15]) was ≤ 4.70, the pKd (HLA-A*24:03) was ≤ 4.70 and the pKd (HLA-A*01:01 [7]; [20]) was 5.98. The pKd (HLA-B*58:01; [20]) was 6.82, the pKd (HLA-B*08:01) was ≤ 4.70 and the pKd (HLA-B*07:02; [20]) was ≤ 4.70. For the same sequence, the pKd (HLA-C*05:01; [21]) was 8.52 and the pKd (HLA-B*27:05; [20]) was ≤ 4.70.
With KMDASLGNLFA the pIC50 (HLA-A*02:01 [11]; source organism: Homo sapiens) was 5.95.
For LLLDVPTAAV, the pIC50 (HLA-A*02:01 [11]; source organism: Homo sapiens) was 6.28.
LQVAHEEI was tested, and the pKd (HLA-B*14:02) was 6.28.
For NQIIHRDL, the pKd (HLA-B*14:02) was 6.89.
Sequence VSPLHRVL has a pKd (HLA-B*14:02) of 7.05.
